The target in the assay is T1, restricted (IL4 independent) hIL13 receptor (human, UniProt Q14627 27-380).
T1 construct: whole, on cells; also called restricted receptor; restrictive receptor
T1 sequence (looked up): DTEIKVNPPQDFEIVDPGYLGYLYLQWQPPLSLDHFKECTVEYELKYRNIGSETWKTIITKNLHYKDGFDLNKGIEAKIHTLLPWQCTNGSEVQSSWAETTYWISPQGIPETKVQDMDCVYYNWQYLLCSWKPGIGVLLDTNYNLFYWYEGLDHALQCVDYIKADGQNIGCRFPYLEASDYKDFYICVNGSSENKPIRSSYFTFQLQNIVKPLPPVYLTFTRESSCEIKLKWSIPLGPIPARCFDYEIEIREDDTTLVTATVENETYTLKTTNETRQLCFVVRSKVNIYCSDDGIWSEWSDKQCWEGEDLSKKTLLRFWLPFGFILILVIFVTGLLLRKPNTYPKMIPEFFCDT
Briefly: autoradiography competition on GBM tissue sections against ^125I-hIL13.E13Y.

Description: Serial tissue sections were cut (10 mm) on a cryostat, thaw-mounchrome alumme-alum coated slides, and stored at 4° C. until analyzed. […] To dissociate non-specifically bound radioligand, sections were rinsed in four consecutive changes (5 minutes each) of ice-cold 0.1 M PBS. […] After drying, labeled sections were apposed to Kodak autoradiography film at −65° C. for 8 hr to 11 days.

B1: recombinant hIL4 (human interleukin 4) (ligand, UniProt P05112 25-153, looked up)
chain: HKCDITLQEIIKTLNSLTEQKTLCTELTVTDIFAASKNTTEKETFCRAATVLRQFYSHHEKDTRCLGATAQQFHRHKQLIRFLKRLDRNLWGLAGLNSCPVKEANQSTLENFLERLKTIMREKYSKCSS
Consider B1, for which the binding result is on record as “no binding (tested: 100- to 500-fold molar excess)”.

The values above are taken from patent US20020159972A1 (PENN STATE RESEARCH FOUNDATION, published 2002).
